Experimental data reported in patent US20130129752A1.

Legend:
Experiment in all cases: cell-based or functional assay
[1] = biological target: human WT LFA-1 (alpha L beta 2) on cells, activation state not specified at the place cited (human) (UniProt P20701)
[2] = biological target: human HA LFA-1 stably expressed on K562 cells (K562-HA LFA-1) (human) (UniProt P20701)
[3] = biological target: human LFA-1 on cells in the unstimulated, low-affinity conformation (human) (UniProt P20701)
human LFA-1 on cells in the unstimulated, low-affinity conformation (human), sequence (P20701 26-1170, chain 1 of 2): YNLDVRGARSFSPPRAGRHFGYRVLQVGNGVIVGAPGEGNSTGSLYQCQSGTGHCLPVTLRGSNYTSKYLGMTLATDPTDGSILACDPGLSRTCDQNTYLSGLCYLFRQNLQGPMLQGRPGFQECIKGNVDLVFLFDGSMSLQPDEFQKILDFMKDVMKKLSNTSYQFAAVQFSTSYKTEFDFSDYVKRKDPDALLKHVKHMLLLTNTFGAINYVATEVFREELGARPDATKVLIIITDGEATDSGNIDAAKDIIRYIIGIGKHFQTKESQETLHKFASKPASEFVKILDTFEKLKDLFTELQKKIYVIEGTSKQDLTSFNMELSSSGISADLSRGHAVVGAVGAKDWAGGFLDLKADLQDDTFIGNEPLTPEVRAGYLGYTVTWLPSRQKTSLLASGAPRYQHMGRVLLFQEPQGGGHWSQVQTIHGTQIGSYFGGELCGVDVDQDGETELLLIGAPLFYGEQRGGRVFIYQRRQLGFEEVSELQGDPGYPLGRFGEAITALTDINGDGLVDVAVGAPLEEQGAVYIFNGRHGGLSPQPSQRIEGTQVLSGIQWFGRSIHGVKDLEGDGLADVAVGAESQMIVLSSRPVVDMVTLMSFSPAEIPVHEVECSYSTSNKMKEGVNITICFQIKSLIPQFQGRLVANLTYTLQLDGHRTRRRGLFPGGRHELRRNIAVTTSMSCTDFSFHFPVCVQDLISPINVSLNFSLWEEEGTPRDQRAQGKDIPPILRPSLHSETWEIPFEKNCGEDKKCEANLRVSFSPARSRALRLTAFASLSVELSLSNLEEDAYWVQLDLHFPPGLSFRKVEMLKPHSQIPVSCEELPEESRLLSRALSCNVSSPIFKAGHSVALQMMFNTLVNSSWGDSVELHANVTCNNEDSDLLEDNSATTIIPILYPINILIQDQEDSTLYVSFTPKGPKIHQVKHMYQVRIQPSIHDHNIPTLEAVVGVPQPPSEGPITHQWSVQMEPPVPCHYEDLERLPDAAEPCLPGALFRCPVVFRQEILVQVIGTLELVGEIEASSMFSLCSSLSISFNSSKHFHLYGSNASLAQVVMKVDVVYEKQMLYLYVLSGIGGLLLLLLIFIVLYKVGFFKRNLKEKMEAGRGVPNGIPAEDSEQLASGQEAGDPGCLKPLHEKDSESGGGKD
human LFA-1 on cells in the unstimulated, low-affinity conformation (human), sequence (P05107 23-769, chain 2 of 2, further chain): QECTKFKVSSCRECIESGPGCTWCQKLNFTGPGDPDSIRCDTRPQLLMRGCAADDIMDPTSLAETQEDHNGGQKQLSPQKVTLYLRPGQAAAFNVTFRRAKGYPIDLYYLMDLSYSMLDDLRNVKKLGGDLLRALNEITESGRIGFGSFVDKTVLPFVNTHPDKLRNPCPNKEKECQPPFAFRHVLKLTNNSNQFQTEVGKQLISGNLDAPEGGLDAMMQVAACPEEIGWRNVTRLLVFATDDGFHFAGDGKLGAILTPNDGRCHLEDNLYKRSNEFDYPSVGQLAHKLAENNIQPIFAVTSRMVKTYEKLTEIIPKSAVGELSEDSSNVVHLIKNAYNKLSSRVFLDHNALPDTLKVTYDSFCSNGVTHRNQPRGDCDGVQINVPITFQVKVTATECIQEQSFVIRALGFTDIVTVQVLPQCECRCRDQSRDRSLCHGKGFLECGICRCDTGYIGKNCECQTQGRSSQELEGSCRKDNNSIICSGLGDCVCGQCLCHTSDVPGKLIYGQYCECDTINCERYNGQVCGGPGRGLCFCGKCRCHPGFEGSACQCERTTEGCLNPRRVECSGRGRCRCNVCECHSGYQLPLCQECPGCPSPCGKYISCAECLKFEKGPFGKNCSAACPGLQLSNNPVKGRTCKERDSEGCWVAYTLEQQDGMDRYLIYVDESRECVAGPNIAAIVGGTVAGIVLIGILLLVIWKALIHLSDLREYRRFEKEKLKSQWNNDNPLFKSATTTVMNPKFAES

human WT LFA-1 (alpha L beta 2) on cells, activation state not specified at the place cited (human), sequence (P20701 26-1170, chain 1 of 2): as the sequence (P20701 26-1170, chain 1 of 2) above
human WT LFA-1 (alpha L beta 2) on cells, activation state not specified at the place cited (human), sequence (P05107 23-769, chain 2 of 2, further chain): as the sequence (P05107 23-769, chain 2 of 2, further chain) above

Substance	Cy3+ K562 cells/Total K562 cells, % (in vivo Cy3-siRNA delivery, SCID mouse lung, flow cytometry) [1] [%]	Cy3+ K562 cells/Total K562 cells, % (in vivo Cy3-siRNA delivery, SCID mouse lung, flow cytometry) [2] [%]	Cy3-siRNA delivery to PBMC subsets (flow cytometry), Cy3+ T and B lymphocytes [3] [%]
TS1/22-protamine fusion protein (scFv TS1/22 fused to human protamine residues 8-29, His6 tag) (from UniProt P04553 8-29)	88.5	87.4	
ML39-protamine fusion protein (control scFv-PF fusion protein that recognizes human ErbB2)	4.7	4.2	
AL-57-protamine fusion protein (scFv AL-57 fused to truncated human protamine, residues 8-29, His6 tag) (from UniProt P04553 8-29)	23.3	88.1	1 to 2
